Patent US20180185450A1 (Sanofi, published 2018)
Where two headings read alike, the source gives them in different places. Numbered stars: 1 amine (or outer) side, 2 acyl side, 3 side chain; on linkers, the order of the positions; unused ones are H or OH. Square brackets hold non-standard residues; d marks the D form. Side chains are listed from the residue outwards. Ends that are not written are not given here. γGlu = O=C(O)[C@H](CCC(=O)[*:2])N[*:1]; X70 = not defined here; x53 = not defined here; x70 = not defined here; Aib = CC(C)(N)C(=O)O

What was measured:
Assay in all cases: cell-based or functional assay
human glucagon receptor [1] = target: T1, human glucagon receptor (human, UniProt P47871 26-477)
human GLP-1 receptor [2] = target: T2, human GLP-1 receptor (human, UniProt P43220 24-463)
human glucagon receptor [3] = target: T1, human glucagon receptor; remark: listed apart in the source
human GLP-1 receptor [4] = target: T2, human GLP-1 receptor; remark: listed apart in the source

T1 sequence (P47871 26-477): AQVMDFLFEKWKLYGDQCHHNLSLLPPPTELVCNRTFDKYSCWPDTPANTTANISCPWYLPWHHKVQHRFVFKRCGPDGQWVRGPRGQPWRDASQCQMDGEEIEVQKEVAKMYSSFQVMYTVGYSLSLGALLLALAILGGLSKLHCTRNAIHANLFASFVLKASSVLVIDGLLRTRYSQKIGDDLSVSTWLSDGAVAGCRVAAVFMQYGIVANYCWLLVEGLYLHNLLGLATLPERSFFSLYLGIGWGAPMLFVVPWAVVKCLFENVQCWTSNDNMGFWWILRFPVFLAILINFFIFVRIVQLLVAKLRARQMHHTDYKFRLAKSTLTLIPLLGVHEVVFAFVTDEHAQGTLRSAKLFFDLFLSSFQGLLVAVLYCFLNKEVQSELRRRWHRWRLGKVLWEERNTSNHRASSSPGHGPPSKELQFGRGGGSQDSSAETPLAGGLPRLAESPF

| Binder | EC50 hGlucagon-R (cAMP) (human glucagon receptor [1]) [pM] | EC50 hGLP-1R (cAMP) (human GLP-1 receptor [2]) [pM] | EC50 hGlucagon-R (cAMP) (human glucagon receptor [3]) [pM] | EC50 hGLP-1R (cAMP) (human GLP-1 receptor [4]) [pM] |
| --- | --- | --- | --- | --- |
| H[Aib]QGTFTSDLSKQK(x53)ESQAAQDFIEWLKAGGPSSGAPPPS-NH2 (reading uncertain) [SEQ ID NO: 43] | 443 | 4.1 | – | – |
| H[Aib]QGTFTSDLSKQK([γGlu-X70])DEEAARLFIEWLKAGGPSSGAPPPS-NH2 (reading uncertain) [SEQ ID NO: 216] | 19.5 | 4.7 | 19.5 | 4.7 |
| H[Aib]QGTFTSDLSKQK([γGlu-x70])ESQAAQDFIEWLKAGGPSSGAPPPS-NH2 (reading uncertain) [SEQ ID NO: 41] | 20.7 | 3.3 | – | – |
| HXQGTFTSDLSKQKDSRRAQDFIEWLKAGGPSSGAPPPS (dSer at 2; K(γE-x53) at 14; C-terminal NH2) [SEQ ID NO: 74] | 1.3 | 4.2 | 1.3 | 4.2 |
| HXQGTFTSDLSKQMESKAAQDFIEWLKAGGPSSGAPPPS (dSer at 2; C-terminal NH2) [SEQ ID NO: 189] | – | – | 1680 | 5.6 |
| HXQGTFTSDLSKQMESRRAQDFIEWLKAGGPSSGAPPPS (dSer at 2; C-terminal NH2) [SEQ ID NO: 184] | – | – | 991 | 85.7 |
| HXQGTFTSDLSKQMDSRRAQDFIEWLKNGGPSSGAPPPS (Aib at 2; C-terminal NH2) [SEQ ID NO: 182] | – | – | 419 | 5.8 |
| HXQGTFTSDLSKQKESQAAQDFIEWLKAGGPSSGAPPPS (dSer at 2; K(x53) at 14; C-terminal NH2) [SEQ ID NO: 42] | 199 | 10.2 | – | – |
| HXQGTFTSDLSKQKDSRRAQDFIEWLKRGGPSSGAPPPS (dSer at 2; K(γE-x53) at 14; C-terminal NH2) [SEQ ID NO: 125] | 6.9 | 31.4 | 6.9 | 31.4 |
| HXQGTFTSDLSKQKDSKAAQDFIEWLKAGGPSSGAPPPS (dSer at 2; K(γE-x53) at 14; C-terminal NH2) [SEQ ID NO: 30] | 7 | 3.2 | 7 | 3.2 |
| HXQGTFTSDLSKQMESRRAXDFIEWLKAGGPSSGAPPPS (dSer at 2; Aib at 20; C-terminal NH2) [SEQ ID NO: 190] | – | – | 1560 | 21.3 |
| HXQGTFTSDLSKQKDSRRAQDFIEWLKKGGPSSGAPPPS (dSer at 2; K(γE-x53) at 14; C-terminal NH2) [SEQ ID NO: 84] | 4.3 | 8.1 | 4.3 | 8.1 |
| HXQGTFTSDLSKQKESKAAQDFIEWLKAGGPSSGAPPPS (dSer at 2; K(γE-x53) at 14; C-terminal NH2) [SEQ ID NO: 24] | 9.4 | 1.9 | 9.8 | 2 |
| HXQGTFTSDLSKQKESRAAQDFIEWLKAGGPSSGAPPPS (dSer at 2; K(GABA-x53) at 14; C-terminal NH2) [SEQ ID NO: 50] | 11.1 | 3.3 | – | – |
| HXQGTFTSDLSKQKESRRAQDFIEWLKAGGPSSGAPPPS (dSer at 2; K(γE-x53) at 14; C-terminal NH2) [SEQ ID NO: 4] | 4 | 5 | 4 | 5 |
| HXQGTFTSDLSKQKESRAAQDFIEWLKAGGPSSGAPPPS (dSer at 2; K(γE-γE-x53) at 14; C-terminal NH2) [SEQ ID NO: 49] | 2.9 | 1.1 | – | – |
| HXQGTFTSDLSKQKESRAAQDFIEWLKAGGPSSGAPPPS (dSer at 2; K(γE-x53) at 14; C-terminal NH2) [SEQ ID NO: 44] | 12 | 2.7 | – | – |
| HXQGTFTSDLSKQMDSRRAQDFIEWLKAGGPSSGAPPPS (dSer at 2; C-terminal NH2) [SEQ ID NO: 188] | – | – | 186 | 89.6 |

| Binder | EC50 hGlucagon-R (cAMP) (human glucagon receptor [1]) [pM] | EC50 hGLP-1R (cAMP) (human GLP-1 receptor [2]) [pM] | EC50 hGlucagon-R (cAMP) (human glucagon receptor [3]) [pM] | EC50 hGLP-1R (cAMP) (human GLP-1 receptor [4]) [pM] |
| --- | --- | --- | --- | --- |
| HXQGTFTSDLSKQKDSRRAQDFIEWLKNGGPSSGAPPPS (dSer at 2; C-terminal NH2) [SEQ ID NO: 183] | – | – | 916 | 1020 |
| HXQGTFTSDLSKQMDSRRAQDFIEWLKRGGPSSGAPPPS (dSer at 2; C-terminal NH2) [SEQ ID NO: 185] | – | – | 262 | 75.7 |
| HXQGTFTSDLSKQKDSRRAQDFIEWLKXGGPSSGAPPPS (dSer at 2; K(γE-x53) at 14; Aib at 28; C-terminal NH2) [SEQ ID NO: 78] | 1.6 | 17.8 | 1.6 | 17.8 |
| HXQGTFTSDLSKQXDSKAAQDFIEWLKAGGPSSGAPPPS (dSer at 2; Nle at 14; C-terminal NH2) [SEQ ID NO: 192] | – | – | 478 | – |
| HXQGTFTSDLSKQKESRAAQEFIEWLKAGGPSSGAPPPS (dSer at 2; K(γE-x53) at 14; C-terminal NH2) [SEQ ID NO: 47] | 10.3 | 2.2 | – | – |
| HXQGTFTSDLSKQKESRRAXDFIEWLKAGGPSSGAPPPS (dSer at 2; K(γE-x53) at 14; Aib at 20; C-terminal NH2) [SEQ ID NO: 75] | 12.5 | 11.1 | 12.5 | 11.1 |
| HXQGTFTSDLSKQKESRAAXLFIEWLKAGGPSSGAPPPS (dSer at 2; K(γE-x53) at 14; Aib at 20; C-terminal NH2) [SEQ ID NO: 46] | 25.1 | 3.2 | – | – |
| HXQGTFTSDLSKQKESRAAQLFIEWLKAGGPSSGAPPPS (dSer at 2; K(γE-x70) at 14; C-terminal NH2) [SEQ ID NO: 45] | 19.9 | 7.5 | – | – |
| HXQGTFTSDLSKQKESRAAQLFIEWLKAGGPSSGAPPPS (dSer at 2; K(γE-x53) at 14; C-terminal NH2) [SEQ ID NO: 48] | 53.6 | 5.9 | – | – |
| HXQGTFTSDLSKQMDSRRAQDFIEWLKXGGPSSGAPPPS (dSer at 2; Aib at 28; C-terminal NH2) [SEQ ID NO: 187] | – | – | 195 | 152 |
| HXQGTFTSDLSKQKESRRAQDFIEWLKAGGPSSGAPPPS (dSer at 2; K(Ac) at 14; C-terminal NH2) [SEQ ID NO: 194] | – | – | 1290 | 159 |
| HXQGTFTSDLSKQKDSRRAQDFIEWLKNGGPSSGAPPPS (dSer at 2; K(γE-x53) at 14; C-terminal NH2) [SEQ ID NO: 97] | 1 | 3.5 | 1.2 | – |
| HXQGTFTSDLSKQMDSRRAQDFIEWLKKGGPSSGAPPPS (dSer at 2; C-terminal NH2) [SEQ ID NO: 186] | – | – | 590 | 102 |
| H[Aib]QGTFTSDLSKQK([γGlu-X70])EEEAARLFIEWLKAGGPSSGAPPPS-NH2 (reading uncertain) [SEQ ID NO: 215] | 42.6 | 5.3 | 42.6 | 5.3 |
| H[Aib]QGTFTSDLSKQK([γGlu-x53])DSRRAQDFIEWLKNGGPSSGAPPPS-NH2 (reading uncertain) [SEQ ID NO: 115] | 1.9 | 2.4 | 1.9 | 2.4 |
| HXQGTFTSDLSKQLDEEAARLFIEWLKAGGPSSGAPPPS (Aib at 2; C-terminal NH2) [SEQ ID NO: 224] | – | – | 2930 | 1.3 |
| HXQGTFTSDLSKQLEEEAARLFIEWLKAGGPSSGAPPPS (Aib at 2; C-terminal NH2) [SEQ ID NO: 225] | – | – | 2870 | 0.7 |
